Experimental data reported in patent US20220229068A1, “DETECTION OF PROTEIN TO PROTEIN INTERACTIONS” (THE GOVERNING COUNCIL OF THE UNIVERSITY OF TORONTO, priority 2019, published 2022).
Each block holds one substance with its values, some of them ahead of it.

Key:
Test in all cases: SIMPL ELISA, bait-IN/prey-CIC
[1] = molecular target: GTF2F2 (prey, CIC format) (human) (UniProt P13984)
[2] = molecular target: CD58 (prey, CIC format) (human) (UniProt P19256)
[3] = molecular target: HGS (prey, CIC format) (human) (UniProt O14964)
[4] = molecular target: UBE2I (prey, CIC format) (human) (UniProt P63279)
[5] = molecular target: EZR (prey, CIC format) (human) (UniProt P15311)
[6] = molecular target: SRC (prey, CIC format) (human) (UniProt P12931)
[7] = molecular target: T1, NRG1 (prey, CIC format) (human) (UniProt Q02297)
T1 sequence (looked up): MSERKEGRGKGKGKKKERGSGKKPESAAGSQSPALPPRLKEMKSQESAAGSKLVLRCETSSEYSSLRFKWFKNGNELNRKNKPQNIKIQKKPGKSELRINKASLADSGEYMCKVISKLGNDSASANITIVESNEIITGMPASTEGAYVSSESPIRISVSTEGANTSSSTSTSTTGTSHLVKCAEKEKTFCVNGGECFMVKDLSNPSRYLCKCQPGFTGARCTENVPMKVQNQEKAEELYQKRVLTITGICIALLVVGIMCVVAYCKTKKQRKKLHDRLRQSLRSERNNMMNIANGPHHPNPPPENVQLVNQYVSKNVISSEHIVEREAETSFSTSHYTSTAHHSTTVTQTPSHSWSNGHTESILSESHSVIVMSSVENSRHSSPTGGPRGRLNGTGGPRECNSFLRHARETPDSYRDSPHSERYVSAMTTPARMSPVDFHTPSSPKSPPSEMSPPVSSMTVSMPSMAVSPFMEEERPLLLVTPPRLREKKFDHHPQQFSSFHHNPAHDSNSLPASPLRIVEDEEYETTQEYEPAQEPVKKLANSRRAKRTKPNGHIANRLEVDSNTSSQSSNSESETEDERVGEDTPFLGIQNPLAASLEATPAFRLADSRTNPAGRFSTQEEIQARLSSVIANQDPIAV

[8] = molecular target: T2, PEX19 (prey, CIC format) (human) (UniProt P40855)
T2 sequence (looked up): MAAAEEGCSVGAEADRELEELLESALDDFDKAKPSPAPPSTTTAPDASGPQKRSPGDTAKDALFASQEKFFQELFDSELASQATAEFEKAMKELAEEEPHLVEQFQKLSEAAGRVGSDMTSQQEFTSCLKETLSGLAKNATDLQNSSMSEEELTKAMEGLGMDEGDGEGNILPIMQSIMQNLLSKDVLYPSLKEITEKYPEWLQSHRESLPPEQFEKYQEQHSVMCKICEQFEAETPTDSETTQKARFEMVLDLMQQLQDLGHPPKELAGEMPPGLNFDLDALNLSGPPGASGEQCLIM

[9] = molecular target: PDGFRB (prey, CIC format) (human) (UniProt P09619)
[10] = molecular target: S100A7 (prey, CIC format) (human) (UniProt P31151)
[11] = molecular target: PTK2 (prey, CIC format) (human) (UniProt Q05397)
[12] = molecular target: T3, VAV1 (prey, CIC format) (human) (UniProt P15498)
T3 sequence (looked up): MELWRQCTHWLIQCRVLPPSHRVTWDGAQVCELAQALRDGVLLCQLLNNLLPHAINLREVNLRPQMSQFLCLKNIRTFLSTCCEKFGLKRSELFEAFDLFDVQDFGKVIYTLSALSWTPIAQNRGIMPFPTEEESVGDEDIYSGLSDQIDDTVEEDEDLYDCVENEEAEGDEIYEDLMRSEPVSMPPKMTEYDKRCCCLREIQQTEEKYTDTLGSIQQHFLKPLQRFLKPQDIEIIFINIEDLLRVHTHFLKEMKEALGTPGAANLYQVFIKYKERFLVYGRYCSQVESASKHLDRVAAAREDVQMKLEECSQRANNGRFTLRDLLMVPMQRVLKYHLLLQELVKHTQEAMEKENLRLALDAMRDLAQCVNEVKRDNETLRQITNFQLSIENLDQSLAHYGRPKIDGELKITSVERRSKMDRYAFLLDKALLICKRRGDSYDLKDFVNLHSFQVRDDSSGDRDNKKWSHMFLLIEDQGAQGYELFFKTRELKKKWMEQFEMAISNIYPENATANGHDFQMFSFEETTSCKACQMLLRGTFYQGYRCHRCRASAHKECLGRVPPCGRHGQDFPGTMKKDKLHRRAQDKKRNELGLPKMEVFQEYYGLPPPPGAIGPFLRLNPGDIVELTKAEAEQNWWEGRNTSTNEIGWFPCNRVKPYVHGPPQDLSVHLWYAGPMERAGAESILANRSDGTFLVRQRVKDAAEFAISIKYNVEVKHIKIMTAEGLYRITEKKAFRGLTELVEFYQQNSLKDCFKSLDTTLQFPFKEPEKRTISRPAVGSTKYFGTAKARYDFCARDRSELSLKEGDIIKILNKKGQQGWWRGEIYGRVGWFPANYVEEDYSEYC

[13] = molecular target: T4, LAT (prey, CIC format) (human) (UniProt O43561)
T4 sequence (looked up): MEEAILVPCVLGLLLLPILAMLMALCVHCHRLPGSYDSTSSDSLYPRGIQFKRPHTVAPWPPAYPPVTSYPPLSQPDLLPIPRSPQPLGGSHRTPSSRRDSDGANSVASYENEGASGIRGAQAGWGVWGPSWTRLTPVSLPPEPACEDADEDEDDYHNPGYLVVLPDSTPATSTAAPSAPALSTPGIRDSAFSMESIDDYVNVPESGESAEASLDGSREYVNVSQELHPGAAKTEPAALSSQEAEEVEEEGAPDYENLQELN

[14] = molecular target: T5, PEX3 (prey, CIC format) (human) (UniProt P56589)
T5 sequence (looked up): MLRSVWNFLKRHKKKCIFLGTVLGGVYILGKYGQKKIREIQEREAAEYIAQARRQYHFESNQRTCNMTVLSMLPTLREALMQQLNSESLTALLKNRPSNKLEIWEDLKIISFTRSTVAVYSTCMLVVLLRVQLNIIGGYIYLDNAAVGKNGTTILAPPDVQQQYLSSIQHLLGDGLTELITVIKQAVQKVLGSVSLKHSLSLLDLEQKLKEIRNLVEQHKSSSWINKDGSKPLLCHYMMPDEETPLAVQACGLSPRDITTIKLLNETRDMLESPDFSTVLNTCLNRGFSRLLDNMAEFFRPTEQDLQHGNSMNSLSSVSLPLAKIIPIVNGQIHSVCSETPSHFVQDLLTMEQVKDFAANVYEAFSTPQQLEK

[15] = molecular target: T6, NOD1 (prey, CIC format) (human) (UniProt Q9Y239)
T6 sequence (looked up): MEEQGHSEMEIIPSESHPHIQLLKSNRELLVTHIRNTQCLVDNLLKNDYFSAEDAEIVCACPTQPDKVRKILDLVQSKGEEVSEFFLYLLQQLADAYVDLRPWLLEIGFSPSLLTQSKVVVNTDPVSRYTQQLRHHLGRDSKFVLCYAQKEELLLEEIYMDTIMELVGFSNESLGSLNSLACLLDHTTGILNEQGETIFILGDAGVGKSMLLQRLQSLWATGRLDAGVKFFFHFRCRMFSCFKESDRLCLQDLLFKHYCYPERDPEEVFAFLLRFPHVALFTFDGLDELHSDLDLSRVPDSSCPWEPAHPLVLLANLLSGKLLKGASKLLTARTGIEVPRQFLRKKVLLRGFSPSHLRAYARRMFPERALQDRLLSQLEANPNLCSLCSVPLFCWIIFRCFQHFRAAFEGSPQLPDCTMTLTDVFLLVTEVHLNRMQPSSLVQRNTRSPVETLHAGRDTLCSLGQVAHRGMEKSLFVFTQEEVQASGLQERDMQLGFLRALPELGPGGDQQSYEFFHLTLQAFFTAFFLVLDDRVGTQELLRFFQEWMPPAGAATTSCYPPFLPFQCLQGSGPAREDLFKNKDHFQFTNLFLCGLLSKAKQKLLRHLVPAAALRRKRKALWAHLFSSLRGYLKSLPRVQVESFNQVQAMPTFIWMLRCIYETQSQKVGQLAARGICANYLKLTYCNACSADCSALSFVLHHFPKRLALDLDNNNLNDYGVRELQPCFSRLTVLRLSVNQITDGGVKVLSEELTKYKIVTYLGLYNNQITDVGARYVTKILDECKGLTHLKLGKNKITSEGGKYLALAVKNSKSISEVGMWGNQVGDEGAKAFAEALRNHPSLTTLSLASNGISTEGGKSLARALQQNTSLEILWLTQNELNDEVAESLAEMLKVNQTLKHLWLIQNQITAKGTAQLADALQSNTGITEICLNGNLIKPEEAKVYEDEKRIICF

[16] = molecular target: TCL1A (prey, CIC format) (human) (UniProt P56279)
[17] = molecular target: RAD23A (prey, CIC format) (human) (UniProt P54725)
[18] = molecular target: CRADD (prey, CIC format) (human) (UniProt P78560)
[19] = molecular target: NCK1 (prey, CIC format) (human) (UniProt P16333)
[20] = molecular target: GRB2 (prey, CIC format) (human) (UniProt P62993)
[21] = molecular target: SMAD4 (prey, CIC format) (human) (UniProt Q13485)
[22] = molecular target: LSM2 (prey, CIC format) (human) (UniProt Q9Y333)
[23] = molecular target: LGALS3BP (prey, CIC format) (human) (UniProt Q08380)
[24] = molecular target: RPA3 (prey, CIC format) (human) (UniProt P35244)
[25] = molecular target: FGFR1 (prey, CIC format) (human) (UniProt P11362)

CRADD (prey, CIC format) (human), sequence (P78560 whole entry): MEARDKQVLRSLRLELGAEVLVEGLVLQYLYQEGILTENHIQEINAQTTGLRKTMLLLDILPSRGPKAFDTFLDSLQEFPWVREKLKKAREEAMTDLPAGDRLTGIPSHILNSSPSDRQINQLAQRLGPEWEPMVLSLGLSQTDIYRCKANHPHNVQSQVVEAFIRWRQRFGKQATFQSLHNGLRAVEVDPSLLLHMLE
UBE2I (prey, CIC format) (human), sequence (P63279 whole entry): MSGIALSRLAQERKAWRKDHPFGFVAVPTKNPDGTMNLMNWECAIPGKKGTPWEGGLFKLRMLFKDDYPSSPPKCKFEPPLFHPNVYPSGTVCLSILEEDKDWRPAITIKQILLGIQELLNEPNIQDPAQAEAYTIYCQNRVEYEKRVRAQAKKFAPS
CASP2 (bait, IN format), sequence (P42575 whole entry): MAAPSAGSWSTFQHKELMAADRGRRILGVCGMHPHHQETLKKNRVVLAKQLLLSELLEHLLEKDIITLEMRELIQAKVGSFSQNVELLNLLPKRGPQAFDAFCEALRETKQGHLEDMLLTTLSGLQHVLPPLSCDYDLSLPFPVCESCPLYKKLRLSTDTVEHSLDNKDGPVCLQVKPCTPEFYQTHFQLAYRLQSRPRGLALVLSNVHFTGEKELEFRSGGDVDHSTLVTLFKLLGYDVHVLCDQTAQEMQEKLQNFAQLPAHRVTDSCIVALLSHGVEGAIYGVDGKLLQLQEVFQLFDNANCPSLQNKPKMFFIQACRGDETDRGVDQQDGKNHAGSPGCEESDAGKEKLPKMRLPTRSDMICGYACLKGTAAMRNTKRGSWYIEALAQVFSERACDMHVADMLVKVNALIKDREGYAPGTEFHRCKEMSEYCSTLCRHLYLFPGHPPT
LSM2 (prey, CIC format) (human), sequence (Q9Y333 whole entry): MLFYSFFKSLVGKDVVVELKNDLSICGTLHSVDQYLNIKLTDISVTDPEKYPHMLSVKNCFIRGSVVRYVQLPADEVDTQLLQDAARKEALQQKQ
PTK2 (prey, CIC format) (human), sequence (Q05397 whole entry): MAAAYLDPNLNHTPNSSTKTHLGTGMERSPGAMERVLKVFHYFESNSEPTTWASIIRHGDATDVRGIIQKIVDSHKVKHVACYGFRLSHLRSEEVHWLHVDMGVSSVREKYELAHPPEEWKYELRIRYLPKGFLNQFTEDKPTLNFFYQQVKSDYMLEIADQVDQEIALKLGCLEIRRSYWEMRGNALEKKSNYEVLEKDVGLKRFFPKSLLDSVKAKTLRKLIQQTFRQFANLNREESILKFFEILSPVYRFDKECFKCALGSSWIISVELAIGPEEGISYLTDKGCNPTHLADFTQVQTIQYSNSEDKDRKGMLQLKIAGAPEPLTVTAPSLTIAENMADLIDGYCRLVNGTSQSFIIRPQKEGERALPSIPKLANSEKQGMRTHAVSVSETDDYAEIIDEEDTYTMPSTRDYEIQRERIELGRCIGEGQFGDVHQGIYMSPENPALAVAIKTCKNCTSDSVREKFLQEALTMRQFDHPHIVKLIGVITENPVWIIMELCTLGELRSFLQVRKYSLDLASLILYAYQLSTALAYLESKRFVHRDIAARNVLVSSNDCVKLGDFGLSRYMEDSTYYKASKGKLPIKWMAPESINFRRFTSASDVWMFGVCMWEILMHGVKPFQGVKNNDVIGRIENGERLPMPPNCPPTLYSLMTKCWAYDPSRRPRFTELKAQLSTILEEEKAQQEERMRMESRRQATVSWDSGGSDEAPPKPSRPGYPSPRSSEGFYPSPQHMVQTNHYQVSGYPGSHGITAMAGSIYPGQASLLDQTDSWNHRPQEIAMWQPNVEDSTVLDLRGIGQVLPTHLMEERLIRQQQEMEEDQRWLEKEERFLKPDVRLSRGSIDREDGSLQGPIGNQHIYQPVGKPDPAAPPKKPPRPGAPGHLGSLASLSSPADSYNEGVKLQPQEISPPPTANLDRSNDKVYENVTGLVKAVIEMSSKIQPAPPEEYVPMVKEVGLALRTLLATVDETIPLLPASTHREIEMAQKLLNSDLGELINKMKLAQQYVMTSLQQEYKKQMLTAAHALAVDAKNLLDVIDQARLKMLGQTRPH
S100A7 (prey, CIC format) (human), sequence (P31151 whole entry): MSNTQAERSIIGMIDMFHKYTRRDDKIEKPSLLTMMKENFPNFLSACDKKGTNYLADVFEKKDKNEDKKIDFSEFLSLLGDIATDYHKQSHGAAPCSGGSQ
LGALS3BP (prey, CIC format) (human), sequence (Q08380 19-585 limits assumed): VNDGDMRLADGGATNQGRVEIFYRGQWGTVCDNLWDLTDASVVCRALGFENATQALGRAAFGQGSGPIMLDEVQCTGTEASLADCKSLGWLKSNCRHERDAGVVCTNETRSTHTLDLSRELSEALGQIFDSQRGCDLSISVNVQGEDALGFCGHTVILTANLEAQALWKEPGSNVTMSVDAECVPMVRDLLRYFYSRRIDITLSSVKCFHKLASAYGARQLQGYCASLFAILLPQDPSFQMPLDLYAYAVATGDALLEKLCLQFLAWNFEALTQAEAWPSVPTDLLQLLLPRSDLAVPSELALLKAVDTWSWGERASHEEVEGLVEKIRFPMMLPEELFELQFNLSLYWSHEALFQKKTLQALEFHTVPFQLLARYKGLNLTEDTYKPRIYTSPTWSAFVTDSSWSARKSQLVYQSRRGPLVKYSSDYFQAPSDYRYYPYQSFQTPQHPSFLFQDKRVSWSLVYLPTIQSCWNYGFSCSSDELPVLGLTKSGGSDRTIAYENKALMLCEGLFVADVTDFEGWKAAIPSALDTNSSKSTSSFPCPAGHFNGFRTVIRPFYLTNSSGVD
GTF2F2 (prey, CIC format) (human), sequence (P13984 whole entry): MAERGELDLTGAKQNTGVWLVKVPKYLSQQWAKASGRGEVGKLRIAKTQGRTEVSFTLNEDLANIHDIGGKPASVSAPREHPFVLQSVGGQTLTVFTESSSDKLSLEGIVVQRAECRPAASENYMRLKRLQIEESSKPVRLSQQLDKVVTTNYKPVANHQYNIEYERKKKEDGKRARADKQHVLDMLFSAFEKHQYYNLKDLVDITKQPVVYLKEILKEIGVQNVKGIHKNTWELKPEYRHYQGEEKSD
RAD23A (prey, CIC format) (human), sequence (P54725 whole entry): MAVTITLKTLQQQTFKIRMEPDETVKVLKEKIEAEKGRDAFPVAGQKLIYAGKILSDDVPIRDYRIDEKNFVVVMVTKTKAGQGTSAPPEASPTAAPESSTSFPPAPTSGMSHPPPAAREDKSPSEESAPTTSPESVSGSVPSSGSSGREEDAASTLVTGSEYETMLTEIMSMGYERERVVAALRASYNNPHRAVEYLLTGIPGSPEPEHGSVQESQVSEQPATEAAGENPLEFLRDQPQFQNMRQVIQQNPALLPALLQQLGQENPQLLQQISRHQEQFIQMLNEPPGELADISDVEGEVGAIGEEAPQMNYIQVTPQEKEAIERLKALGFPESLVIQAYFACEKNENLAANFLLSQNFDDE
HGS (prey, CIC format) (human), sequence (O14964 whole entry): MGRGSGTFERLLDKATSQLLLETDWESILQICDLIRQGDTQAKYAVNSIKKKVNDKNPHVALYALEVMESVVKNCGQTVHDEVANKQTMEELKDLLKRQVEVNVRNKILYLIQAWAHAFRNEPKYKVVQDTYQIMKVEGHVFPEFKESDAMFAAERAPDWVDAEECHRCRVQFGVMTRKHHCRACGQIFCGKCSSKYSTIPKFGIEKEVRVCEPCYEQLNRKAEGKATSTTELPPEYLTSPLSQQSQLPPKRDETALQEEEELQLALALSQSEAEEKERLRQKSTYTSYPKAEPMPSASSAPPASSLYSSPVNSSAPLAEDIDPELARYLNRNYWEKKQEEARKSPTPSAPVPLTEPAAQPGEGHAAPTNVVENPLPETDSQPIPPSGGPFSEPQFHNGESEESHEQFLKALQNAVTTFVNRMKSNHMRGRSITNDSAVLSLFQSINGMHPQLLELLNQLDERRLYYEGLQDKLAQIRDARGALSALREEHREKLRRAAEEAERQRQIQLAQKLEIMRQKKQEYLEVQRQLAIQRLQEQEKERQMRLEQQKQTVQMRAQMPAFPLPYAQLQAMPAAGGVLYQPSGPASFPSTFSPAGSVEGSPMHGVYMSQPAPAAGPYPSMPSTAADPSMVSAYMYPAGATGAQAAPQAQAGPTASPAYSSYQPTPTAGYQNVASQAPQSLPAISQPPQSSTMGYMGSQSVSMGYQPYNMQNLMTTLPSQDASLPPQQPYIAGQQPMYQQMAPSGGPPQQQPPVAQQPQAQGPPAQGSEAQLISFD
EZR (prey, CIC format) (human), sequence (P15311 whole entry): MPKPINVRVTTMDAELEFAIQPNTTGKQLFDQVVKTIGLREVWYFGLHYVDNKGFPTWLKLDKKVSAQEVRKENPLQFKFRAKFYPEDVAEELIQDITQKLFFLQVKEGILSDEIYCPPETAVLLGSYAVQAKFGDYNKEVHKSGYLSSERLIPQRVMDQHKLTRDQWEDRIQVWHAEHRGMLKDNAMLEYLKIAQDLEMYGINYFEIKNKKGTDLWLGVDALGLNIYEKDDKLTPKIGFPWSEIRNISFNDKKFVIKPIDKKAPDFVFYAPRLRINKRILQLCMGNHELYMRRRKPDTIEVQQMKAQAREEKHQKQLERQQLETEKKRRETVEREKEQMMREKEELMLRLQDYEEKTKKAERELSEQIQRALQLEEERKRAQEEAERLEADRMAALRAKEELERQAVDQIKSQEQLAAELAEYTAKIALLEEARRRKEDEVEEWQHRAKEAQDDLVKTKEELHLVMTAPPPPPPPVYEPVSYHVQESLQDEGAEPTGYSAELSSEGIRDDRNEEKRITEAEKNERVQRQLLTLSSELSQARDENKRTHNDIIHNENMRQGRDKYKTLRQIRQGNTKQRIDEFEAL
CD58 (prey, CIC format) (human), sequence (P19256 29-250 limits assumed): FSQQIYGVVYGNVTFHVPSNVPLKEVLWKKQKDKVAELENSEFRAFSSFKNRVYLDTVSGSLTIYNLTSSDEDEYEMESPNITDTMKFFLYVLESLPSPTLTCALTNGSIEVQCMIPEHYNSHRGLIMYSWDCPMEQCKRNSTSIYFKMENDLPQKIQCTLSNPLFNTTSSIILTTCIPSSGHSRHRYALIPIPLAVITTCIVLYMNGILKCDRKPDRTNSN

Substance: CD2 (bait, IN format) (from UniProt P06729 25-351) (receptor)
- PLU mean [1]: 0.299
- PLU mean [2]: 0.972
- PLU mean [3]: 0.253

Substance: GRB2 (bait, IN format) (from UniProt P62993 1-217)
- PLU mean [12]: 1.39
- PLU mean [11]: 0.741
- PLU mean [13]: 0.223
- PLU mean [14]: 0.0588

Substance: CASP2 (bait, IN format) (from UniProt P42575 1-452)
- PLU mean [18]: 2.45
- PLU mean [12]: 0.696

Substance: LGALS3 (bait, IN format) (from UniProt P17931 1-250)
- PLU mean [22]: 0.162
- PLU mean [23]: 0.248

Substance: RPA2 (bait, IN format) (from UniProt P15927 1-270)
- PLU mean [10]: 0.0606
- PLU mean [24]: 2.72

Substance: LSM3 (bait, IN format) (from UniProt P62310 1-102)
- PLU mean [22]: 3.03
- PLU mean [23]: 0.129
- PLU mean [25]: 0.272

Other lines, results leading:

- PLU mean [4]: 0.194
Substance: TP53 (bait, IN format) (from UniProt P04637 1-393)

- PLU mean [5]: 0.123
- PLU mean [6]: 0.186
Substance: PRKAR2A (bait, IN format) (from UniProt P13861 1-404)

- PLU mean [7]: 0.31
- PLU mean [8]: 2.17
Substance: PEX14 (bait, IN format) (from UniProt O75381 1-377)

- PLU mean [4]: 0.153
- PLU mean [9]: 0.261
Substance: CRK (bait, IN format) (from UniProt P46108 1-304)

- PLU mean [10]: 0.134
- PLU mean [11]: 0.174
Substance: FABP5 (bait, IN format) (from UniProt Q01469 1-135)

- PLU mean [15]: 0.845
- PLU mean [16]: 0.108
- PLU mean [17]: 0.919
Substance: PSMD4 (bait, IN format) (from UniProt P55036 1-377)

- PLU mean [18]: 0.193
- PLU mean [12]: 0.789
- PLU mean [19]: 0.662
Substance: LCP2 (bait, IN format) (from UniProt Q13094 1-533)

- PLU mean [20]: 0.151
- PLU mean [21]: 0.182
Substance: SMAD1 (bait, IN format) (from UniProt Q15797 1-465)
